Where no end group is shown, it is not given here.
Columns and labels:
PKC-ζ (purified isoform) [1] = target: T1, PKC-ζ (purified isoform) (Homo sapiens (Human), UniProt Q05513 1-592); experiment: summary grade, purified isoform ELISA
T1 construct: also called PKC-zeta; PKCzeta
T1 sequence: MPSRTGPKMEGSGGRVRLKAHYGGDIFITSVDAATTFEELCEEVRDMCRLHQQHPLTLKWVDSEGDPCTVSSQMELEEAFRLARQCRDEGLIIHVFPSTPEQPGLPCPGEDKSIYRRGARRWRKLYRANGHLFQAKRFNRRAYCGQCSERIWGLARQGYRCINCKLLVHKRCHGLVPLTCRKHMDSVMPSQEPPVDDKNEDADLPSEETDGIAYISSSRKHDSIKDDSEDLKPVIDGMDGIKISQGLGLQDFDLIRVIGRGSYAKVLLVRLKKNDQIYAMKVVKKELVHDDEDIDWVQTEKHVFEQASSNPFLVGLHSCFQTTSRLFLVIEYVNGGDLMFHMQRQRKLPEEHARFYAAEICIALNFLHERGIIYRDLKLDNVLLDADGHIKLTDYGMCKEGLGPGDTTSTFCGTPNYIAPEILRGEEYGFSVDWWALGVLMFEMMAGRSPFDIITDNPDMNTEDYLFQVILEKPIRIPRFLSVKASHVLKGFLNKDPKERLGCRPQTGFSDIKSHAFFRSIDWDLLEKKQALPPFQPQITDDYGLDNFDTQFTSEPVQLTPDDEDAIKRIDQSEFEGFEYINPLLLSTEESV

PKC-δ (purified isoform) [2] = target: T2, PKC-δ (purified isoform) (Homo sapiens (Human), UniProt Q05655 1-676); experiment: competitive ELISA on purified PKC-δ vs anti-PKC-δ Ab; PRE 50 µM
T2 construct: also called PKC-delta; PKCdelta
Procedure: (§1) Greiner 96 well ELISA plates were coated with the appropriate PKC isoform diluted in PBSN (PBS with Calcium/Magnesium+0.05% Sodium azide w/w). 50 μL/well at 250 ng/mL was used. Control wells contained PBSN only. Plates were incubated overnight at 4° C.
(§2) The plates were washed 3 times with 200 μL of dH₂O per well, then 100 μL of blocking solution was added per well and the plate incubated for 1 h at 37° C. The washing steps with dH₂O were repeated and 50 μL of the appropriate PRE solution (PRE stock solution [20 mM in DMSO] diluted in PBSN) was added and the plate incubated for 1 h at room temperature.
(§3) 50 μL of 1:1000 dilution of Alkaline Phosphatase (AP) conjugated antibody (anti-rabbit for all except zeta, which was anti-goat) was then added and the plate incubated for 1 h at room temperature. Washing with dH₂O was then repeated. Finally, 100 μL of pNPP solution in pNPP buffer (2 mM MgCl₂, 100 mM Sodium bicarbonate in water, pH 9.8) was added to all wells and incubated for 8 minutes for α, βI, βII ε, and ζ, or for 15-20 mins for […] (until sufficient coloration is observed). The reaction was stopped by addition of Stop solution (2N NaOH) and the absorbance at 405 nm was read on a Galaxy Plate reader.

PKC-ζ (purified isoform) [3] = target: T1, PKC-ζ (purified isoform); experiment: competitive ELISA on purified PKC-ζ vs anti-PKC-ζ Ab; PRE 50 µM
Procedure: as §1, §2, §3

PKC-δ (purified isoform) [4] = target: T2, PKC-δ (purified isoform); experiment: competitive ELISA on purified PKC-δ vs anti-PKC-δ Ab; PRE 100 µM
Procedure: as §1, §2, §3

PKC-δ (purified isoform) [5] = target: T2, PKC-δ (purified isoform); experiment: competitive ELISA on purified PKC-δ vs anti-PKC-δ Ab; PRE 200 µM
Procedure: as §1, §2, §3

PKC-ζ (purified isoform) [6] = target: T1, PKC-ζ (purified isoform); experiment: competitive ELISA on purified PKC-ζ vs anti-PKC-ζ Ab; PRE 100 µM
Procedure: as §1, §2, §3

PKC-ζ (purified isoform) [7] = target: T1, PKC-ζ (purified isoform); experiment: competitive ELISA on purified PKC-ζ vs anti-PKC-ζ Ab; PRE 200 µM
Procedure: as §1, §2, §3

[8] = target: T3, PKC-α (endogenous, human cell lysates and cells) (human, UniProt P17252 2-672); experiment: anti-PKC-α immunofluorescence, V5E-transfected IMR-32 cells loaded with PRE (label on PKC-α and V5E); control with endocytosis reagent 113
T3 construct: Endogenous protein of human cell lysates, on Western blot membranes (denatured) or in fixed cells; also called PKC-alpha; PKC-A
Text: Neuroblastoma cells from the IMR-32 cell line were stably transfected with a vector containing the V5E sequence of PKC-α as outlined above in Example 13. The V5E sequence is part of the antigenic amino acid sequence that is used to raise the commercially available anti-PKC-α isoform-specific antibody.
The peptides PRE 1, 2, 3, 4, 5, 6, 7, 8, 9, 10, 11, 12 and 13 (see Table 3) were incorporated into the transfected IMR-32 cells via pinocytic endocytosis (Molecular Probes) according to the supplier's recommendations. Following fixation and permeabilization, PKC-α was detected using an Alexa fluor secondary antibody (as described above in Example 8).

[9] = target: T4, PKC-βII (purified isoform) (Homo sapiens (Human), UniProt P05771 2-621); experiment: competitive ELISA on purified PKC-βII vs anti-PKC-βII Ab; PRE 50 µM
T4 construct: also called PKC-beta II
Procedure: as §1, §2, §3

[10] = target: T4, PKC-βII (purified isoform); experiment: competitive ELISA on purified PKC-βII vs anti-PKC-βII Ab; PRE 100 µM
Procedure: as §1, §2, §3

[11] = target: T4, PKC-βII (purified isoform); experiment: competitive ELISA on purified PKC-βII vs anti-PKC-βII Ab; PRE 200 µM
Procedure: as §1, §2, §3

[12] = target: T5, PKC-ε (endogenous, human cell extracts) (human, UniProt Q02156 1-737); experiment: Protocol B blot competition, IMR-32 extract, competitor anti-PKC-ε Ab, Band 1; PRE 20 µg
T5 construct: Two bands on the blot, said to be alternate splicing variants; also called PKC-epsilon; PKC-ε Band 1
T5 sequence (looked up): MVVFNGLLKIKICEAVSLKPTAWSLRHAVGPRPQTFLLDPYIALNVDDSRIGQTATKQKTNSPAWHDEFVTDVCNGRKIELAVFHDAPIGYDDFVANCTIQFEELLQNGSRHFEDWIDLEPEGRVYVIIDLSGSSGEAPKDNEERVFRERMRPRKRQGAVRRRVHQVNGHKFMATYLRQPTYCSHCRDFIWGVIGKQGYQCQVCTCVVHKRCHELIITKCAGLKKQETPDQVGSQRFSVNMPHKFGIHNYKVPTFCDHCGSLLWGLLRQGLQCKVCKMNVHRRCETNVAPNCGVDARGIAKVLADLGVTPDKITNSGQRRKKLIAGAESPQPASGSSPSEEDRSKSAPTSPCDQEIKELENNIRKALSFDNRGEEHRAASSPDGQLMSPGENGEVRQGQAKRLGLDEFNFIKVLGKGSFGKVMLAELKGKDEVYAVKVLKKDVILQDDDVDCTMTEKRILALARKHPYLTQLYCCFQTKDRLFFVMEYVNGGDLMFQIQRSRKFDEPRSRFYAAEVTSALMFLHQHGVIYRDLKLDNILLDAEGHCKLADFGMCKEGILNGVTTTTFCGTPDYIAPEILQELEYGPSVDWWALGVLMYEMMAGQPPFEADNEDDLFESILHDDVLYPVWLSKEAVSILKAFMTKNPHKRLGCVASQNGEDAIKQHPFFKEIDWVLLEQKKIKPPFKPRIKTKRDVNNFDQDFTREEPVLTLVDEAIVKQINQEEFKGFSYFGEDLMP
Procedure: (§4) The ability of the peptides PRE 2 and PRE 3 (see Table 3) to interfere with the binding of a PKC-α-specific polyclonal antibody (Santa Cruz Biotechnology, Inc.) to PKC-α was determined using a modified version of the protocol outlined above in which the test peptide was added directly to the cell extract prior to electrophoresis at a concentration of either 5× or 15× the concentration of the protein applied to each well of the gel for the Western blots (20 μg).
(§5) Peptides PRE 2, PRE 3 and PRE 4 (see Table 3) were tested for their ability to interfere with the binding of isoform-specific polyclonal antibodies (Santa Cruz Biotechnology, Inc.) to PKC-ε using the general protocol described in Example 3. Two bands, representing alternate splicing variants of PKC-ε, were identified on the Western blot using this anti-PKC-ε antibody.

[13] = target: T5, PKC-ε (endogenous, human cell extracts); experiment: Protocol B blot competition, IMR-32 extract, competitor anti-PKC-ε Ab, Band 1; PRE 50 µg
Procedure: as §4, §5

[14] = target: T5, PKC-ε (endogenous, human cell extracts); experiment: Protocol B blot competition, IMR-32 extract, competitor anti-PKC-ε Ab, Band 2; PRE 20 µg
Procedure: as §4, §5

[15] = target: T5, PKC-ε (endogenous, human cell extracts); experiment: Protocol B blot competition, IMR-32 extract, competitor anti-PKC-ε Ab, Band 2; PRE 50 µg
Procedure: as §4, §5

[16] = target: T5, PKC-ε (endogenous, human cell extracts); experiment: Protocol B blot competition, IMR-32 extract, competitor anti-PKC-ε Ab, Band 1; PRE 100 µg
Procedure: as §4, §5

[17] = target: T5, PKC-ε (endogenous, human cell extracts); experiment: Protocol B blot competition, IMR-32 extract, competitor anti-PKC-ε Ab, Band 2; PRE 100 µg
Procedure: as §4, §5

T4 sequence (P05771 other isoform, or with tags, fused parts or gaps limits assumed): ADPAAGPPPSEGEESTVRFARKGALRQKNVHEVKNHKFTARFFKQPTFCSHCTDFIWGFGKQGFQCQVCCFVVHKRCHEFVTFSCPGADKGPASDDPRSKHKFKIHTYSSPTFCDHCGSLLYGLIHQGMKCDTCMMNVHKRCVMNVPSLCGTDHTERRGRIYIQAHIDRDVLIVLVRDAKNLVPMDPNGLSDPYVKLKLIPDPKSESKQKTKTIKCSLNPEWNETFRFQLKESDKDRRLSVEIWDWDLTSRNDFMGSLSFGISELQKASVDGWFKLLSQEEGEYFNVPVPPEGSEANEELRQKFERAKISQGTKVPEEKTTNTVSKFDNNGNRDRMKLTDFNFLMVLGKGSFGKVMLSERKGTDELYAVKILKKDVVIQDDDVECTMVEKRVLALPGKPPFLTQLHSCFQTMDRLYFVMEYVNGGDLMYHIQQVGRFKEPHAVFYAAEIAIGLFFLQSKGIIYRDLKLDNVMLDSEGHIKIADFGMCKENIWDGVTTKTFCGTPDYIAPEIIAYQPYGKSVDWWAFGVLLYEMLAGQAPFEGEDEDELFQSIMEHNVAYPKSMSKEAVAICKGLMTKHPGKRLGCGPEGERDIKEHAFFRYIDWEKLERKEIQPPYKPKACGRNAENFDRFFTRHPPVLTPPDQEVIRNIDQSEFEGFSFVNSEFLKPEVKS
T2 sequence (Q05655 whole entry, stated change not applied, canonical isoform): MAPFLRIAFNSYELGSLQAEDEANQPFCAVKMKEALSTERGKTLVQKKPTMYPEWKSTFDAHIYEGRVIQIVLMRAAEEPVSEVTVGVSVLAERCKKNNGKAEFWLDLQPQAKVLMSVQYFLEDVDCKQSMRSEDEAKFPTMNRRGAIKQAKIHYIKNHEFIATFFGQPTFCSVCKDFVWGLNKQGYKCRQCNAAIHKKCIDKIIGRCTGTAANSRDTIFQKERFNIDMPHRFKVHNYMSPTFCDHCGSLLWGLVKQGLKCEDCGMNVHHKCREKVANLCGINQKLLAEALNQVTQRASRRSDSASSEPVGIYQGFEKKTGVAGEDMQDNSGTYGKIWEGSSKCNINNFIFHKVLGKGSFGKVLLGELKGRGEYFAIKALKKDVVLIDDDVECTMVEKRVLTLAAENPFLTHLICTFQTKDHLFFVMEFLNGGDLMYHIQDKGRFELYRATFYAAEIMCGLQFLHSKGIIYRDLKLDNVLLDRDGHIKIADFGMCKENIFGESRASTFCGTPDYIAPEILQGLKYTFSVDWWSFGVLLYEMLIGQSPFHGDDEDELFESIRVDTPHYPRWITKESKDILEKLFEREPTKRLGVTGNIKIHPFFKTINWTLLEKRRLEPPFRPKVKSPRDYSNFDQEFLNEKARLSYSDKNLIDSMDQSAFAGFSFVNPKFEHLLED

B1: PRE 8 (peptide)
peptide: ILEDKGGDAQNLIGISI
notes: Synthetic peptide; termini given free; also called peptide PRE 8
PKC-ζ (purified isoform) [1]
  binding result: no binding (tested: 200 µM)
PKC-δ (purified isoform) [2]
  binding capacity (%): 6.96%
PKC-ζ (purified isoform) [3]
  binding capacity (%): 0%
PKC-δ (purified isoform) [4]
  binding capacity (%): 3.38%
PKC-δ (purified isoform) [5]
  binding capacity (%): 6.68%
PKC-ζ (purified isoform) [6]
  binding capacity (%): 0%
PKC-ζ (purified isoform) [7]
  binding capacity (%): 0%
[8]
  Relative Fluorescence Intensity: 81

B2: PRE 5 (peptide)
peptide: Ac-AKGIQEVKGGKDAQNLIGISI-NH2
notes: Synthetic peptide; also called peptide PRE 5
PKC-δ (purified isoform) [2]
  binding capacity (%): 0.2%
PKC-δ (purified isoform) [4]
  binding capacity (%): 0%
PKC-δ (purified isoform) [5]
  binding capacity (%): 4.31%
[8]
  Relative Fluorescence Intensity: 124

B3: PRE 10 (peptide)
peptide: Ac-ISIGILNQADK-NH2
notes: Synthetic peptide; also called peptide PRE 10
[9]
  binding capacity (%): 0%
[10]
  binding capacity (%): 0%
[11]
  binding capacity (%): 0%
[8]
  Relative Fluorescence Intensity: 122

B4: PRE 2 (peptide)
peptide: KDAQNLIGISL-NH2
notes: Synthetic peptide; also called peptide PRE 2
[12]
  band intensity: 323
  inhibition (%): 23.4%
  relative intensity (%): 76.6%
[13]
  band intensity: 0
  inhibition (%): 100%
  relative intensity (%): 0%
[14]
  band intensity: 160
  inhibition (%): 38.6%
  relative intensity (%): 61.4%
[15]
  band intensity: 0
  inhibition (%): 100%
  relative intensity (%): 0%
[16]
  band intensity: 0
  inhibition (%): 100%
  relative intensity (%): 0%
[17]
  band intensity: 0
  inhibition (%): 100%
  relative intensity (%): 0%
